The values that follow come from patent US20030236190A1 (published 2003).

Assay [1] concerns the target T1, Soluble IGF-1R (R&D Systems, Cat. # 391-GR/CF); recombinant human IGF-1R (human, UniProt P08069 31-935).
T1 construct: extracellular domain; Eu3+-labelled in the TR-FRET assays; also called sIGF-1R; rhIGF-1R
Put plainly: phage ELISA vs milk.

In assay [2] the target is T1, Soluble IGF-1R (R&D Systems, Cat. # …). Put plainly: phage ELISA, vs IR. Background: An ELISA detects its analyte on a solid surface through an enzyme-linked reagent.
The target of assay [3] is T2, human insulin receptor (HIR) (human, UniProt P06213 28-1382, limits assumed).
T2 construct: Detergent-solubilised receptor; The natural receptor is an alpha2-beta2 heterotetramer cleaved from one precursor
The assay can be described thus: 125I-insulin displacement, solubilised HIR.

Non-standard residues stand in square brackets, D forms with d. Primed or numbered codes have the meaning given here. No end group written: not given here. Hyp = O=C(O)[C@@H]1C[C@@H](O)CN1; Cha = N[C@@H](CC1CCCCC1)C(=O)O; Ac6c = NC1(C(=O)O)CCCCC1; Aic′ = not defined here; Aib = CC(C)(N)C(=O)O

B1: B6Hα-1-B5-IR (peptide)
peptide: CCTTEMVVMDARDDPFYHKLSELVTGG
For B1, the “Ratio over Background” value in assay [1] was 20.5 fold. Besides, the “IGF-1R/IR Comparison” value in assay [2] came out at 20.5 ratio.

B2: S359 (peptide)
peptide 1: XDWLQRNANFYDWFVAEL
peptide 2: XDWLQRNANFYDWFVAEL
modifications: N-terminal Lig′ coupled to linker 9
notes: dimer, N-N
For B2, in assay [3], the dissociation constant (Kd) (in general, the free concentration of one partner at which half of the binding sites on the other are occupied at equilibrium, for simple one-to-one binding) came to 700 nM.

B3: S334 (peptide)
peptide 1: XGGGFHENFYDWFVRQVSKK
peptide 2: XGGGFHENFYDWFVRQVSKK
modifications: N-terminal Lig′ coupled to linker 22
notes: dimer, N-N
B3 yielded a Kd in assay [3] of 1600 nM.

B4: S304 (peptide)
peptide: GGSFYDD[Ac6c]E[Aib]LW[Aib]G
notes: printed: GGSFYDD-Acy-E-Aib-LW-Aib-G
In assay [3], B4 registered a Kd of 21000 nM.

B5: S371 (peptide)
peptide: GSLDESFYDWFERQLGKK
notes: also called RP9
In turn, B5 yielded a Kd in assay [3] of 630 nM.

B6: S392 (peptide)
peptide: FYDWFERQLG
Consider B6, for which the Kd in assay [3] was 3800 nM.

B7: S395 (peptide)
peptide: GSLDESFYDWFERQL
For the molecule B7, in assay [3], the affinity, expressed as Kd, was 8100 nM.

B8: S322 (peptide)
peptide: EWRD[Hyp]FYDWFDE[dI][Hyp][dE]
notes: printed: EWRD-Hyp-FYDWFDEi-Hyp-e
Consider B8, for which the affinity in assay [3], expressed as Kd, was 720 nM.

B9: S326 (peptide)
peptide: GIISQSCPESFYDWFAGQVSDPWWC[dW]
modifications: cysteine pairing not given here
notes: also called G33; H2CA-4-G9-IGFR
As for B9, in assay [3], binding was put at a Kd of 590 nM.

B10: S303 (peptide)
peptide: SGPFYEE[Ac6c]ELLW[Aib]G
notes: printed: SGPFYEE-Acy-ELLW-Aib-G
For B10, in assay [3], binding was put at a Kd of 5700 nM.

B11: S386 (peptide)
peptide: GSLDESFYDWFERQLG
notes: also called RP9 minus terminal lysines
Regarding B11, the dissociation constant (Kd) in assay [3] worked out at 320 nM.

B12: S381 (peptide)
peptide 1: EEDWLQRNANFYDWFVAELX
peptide 2: EEDWLQRNANFYDWFVAELX
modifications: C-terminal Lig′ coupled to linker 23
notes: dimer, C-C
In the case of B12, the Kd in assay [3] worked out at 120 nM.

B13: S373 (peptide)
peptide: GSLDESFYDWFERQLGKKKS
modifications: not fully specified; printed as GSLDESFYDWFERQLGKKK(S)
B13 yielded a dissociation constant Kd in assay [3] of 120 nM.

B14: S379 (peptide)
peptide 1: GSLDESFYDWFERQLGKKKX
peptide 2: GSLDESFYDWFERQLGKKKX
modifications: C-terminal Lys carrying Ald coupled to linker 19
notes: dimer, C-C
On to B14, for which, in assay [3], binding was characterised by a dissociation constant (Kd) of 56 nM.

B15: S350 (peptide)
peptide 1: GSLDESFYDWFERQLGKKX
peptide 2: GSLDESFYDWFERQLGKKX
modifications: not fully specified; C-terminal Lig coupled to linker 21
notes: dimer, C-C
Turning to B15, in assay [3], the dissociation constant Kd was 470 nM.

B16: S366 (peptide)
peptide: PLRESRNFYDWFVQQLE
In turn, B16 gave an equilibrium dissociation constant (Kd) in assay [3] of 370 nM.

B17: S316 (peptide)
peptide: WQGYAWLS
The molecule B17 returned a dissociation constant Kd in assay [3] of 7000 nM.

B18: S378 (peptide)
peptide 1: GSLDESFYDWFERQLGKKKX
peptide 2: GSLDESFYDWFERQLGKKKX
modifications: C-terminal Lys carrying Ald coupled to linker 17
notes: dimer, C-C
Molecule B18 showed a dissociation constant Kd in assay [3] of 65 nM.

B19: S342 (peptide)
peptide: DLWFNAKEDMNFYDWFVWQLR
B19: the affinity in assay [3], expressed as Kd, was 1800 nM.

B20: H2CA-4-E9-IGFR (peptide)
peptide: RGAVAGFHDQFYDWFDRQVSRVHKFG
As for B20, in assay [1], the “Ratio over Background” value is 5.6 fold. For the same molecule, the “IGF-1R/IR Comparison” value in assay [2] was 3 ratio.

B21: S394 (peptide)
peptide: GSLDESFYDWFERQ
As to B21, the dissociation constant (Kd) in assay [3] turned out to be 91 nM.

B22: S376 (peptide)
peptide 1: XGSLDESFYDWFERQLGKK
peptide 2: XGSLDESFYDWFERQLGKK
modifications: N-terminal Ald coupled to linker 19
notes: dimer, N-N
In assay [3], B22 returned a Kd of 160 nM.

B23: S361 (peptide)
peptide 1: GSLDESFYDWFERQLGKKX
peptide 2: GSLDESFYDWFERQLGKKX
modifications: C-terminal Lig′ coupled to linker 24
notes: dimer, C-C
In turn, B23 came in with a Kd in assay [3] of 2200 nM.

B24: S329 (peptide)
peptide 1: XFHENFYDWFVRQVSKK
peptide 2: XFHENFYDWFVRQVSKK
modifications: N-terminal Lig′ coupled to linker 17
notes: dimer, N-N
B24 returned a Kd in assay [3] of 2700 nM.

B25: S360 (peptide)
peptide 1: XDWLQRNANFYDWFVAEL
peptide 2: XDWLQRNANFYDWFVAEL
modifications: N-terminal Lig′ coupled to linker 23
notes: dimer, N-N
As for B25, the Kd in assay [3] worked out at 990 nM.

B26: S331 (peptide)
peptide: KHLCVLEELFWGASLFGYCSGKK
For the molecule B26, binding in assay [3] was put at a Kd of 1600 nM.

B27: S352 (peptide)
peptide 1: XGGGFHENFYDWFVRQVSKK
peptide 2: XGGGFHENFYDWFVRQVSKK
modifications: N-terminal Lig′ coupled to linker 21
notes: dimer, N-N
In turn, B27 had a dissociation constant (Kd) in assay [3] of 660 nM.

B28: S325 (peptide)
peptide 1: XGSLDESFYDWFERQLGKK
peptide 2: XGSLDESFYDWFERQLGKK
modifications: N-terminal Lig′ coupled to linker 9
notes: dimer, N-N
B28 had a Kd in assay [3] of 46 nM.

B29: S333 (peptide)
peptide 1: XGSLDESFYDWFERQLGKK
peptide 2: XGSLDESFYDWFERQLGKK
modifications: N-terminal Lig′ coupled to linker 22
notes: dimer, N-N
In turn, B29 had a Kd in assay [3] of 140 nM.

B30: S387 (peptide)
peptide: SLDESFYDWFERQLG
On to B30, for which the Kd in assay [3] was 630 nM.

B31: A6L-0-H3-IR (peptide)
peptide: YRGMLVLGRISGGAGKAASERPARIGQKVSAVNFYDWFV
Consider B31, for which the “Ratio over Background” value in assay [1] stood at 26 fold. Further, in assay [2], the “IGF-1R/IR Comparison” value came out at 13 ratio.

B32: S354 (peptide)
peptide 1: XGSLDESFYDWFERQLGKK
peptide 2: XGSLDESFYDWFERQLGKK
modifications: N-terminal Lig′ coupled to linker 14
notes: dimer, N-N
For B32, the equilibrium dissociation constant (Kd) in assay [3] amounted to 39 nM.

B33: S388 (peptide)
peptide: LDESFYDWFERQLG
In assay [3], B33 displayed a Kd of 340 nM.

B34: S319 (peptide)
peptide: D[Aic′]D[Aib]EFYDWFDE[dI]P[dQ]
In assay [3], B34 yielded a dissociation constant (Kd) of 870 nM.

B35: S374 (peptide)
peptide 1: XGSLDESFYDWFERQLGKK
peptide 2: XGSLDESFYDWFERQLGKK
modifications: not fully specified; N-terminal Ald (aldehyde from periodate oxidation of serine) coupled to linker 17
notes: dimer, N-N
Molecule B35 yielded a dissociation constant (Kd) in assay [3] of 180 nM.

B36: S365 (peptide)
peptide: RMYFSTGAPQNFYDWFVQEWD
The molecule B36 displayed an equilibrium dissociation constant (Kd) in assay [3] of 10000 nM.

B37: S362 (peptide)
peptide 1: XGSLDESFYDWFERQLGKK
peptide 2: XGSLDESFYDWFERQLGKK
modifications: N-terminal Lig′ coupled to linker 24
notes: dimer, N-N
Turning to B37, in assay [3], the equilibrium dissociation constant (Kd) was found to be 110 nM.

B38: S306 (peptide)
peptide: GRVDWLQRNANFYDWFVAE[Ac6c]G
B38 had an equilibrium dissociation constant (Kd) in assay [3] of 2200 nM.

B39: S372 (peptide)
peptide: SGSLDESFYDWFERQLGKK
In assay [3], B39 displayed a Kd of 200 nM.

B40: S335 (peptide)
peptide 1: GSLDESFYDWFERQLGKKX
peptide 2: GSLDESFYDWFERQLGKKX
modifications: not fully specified; C-terminal Lig coupled to linker 22
notes: dimer, C-C
B40 came in with an equilibrium dissociation constant (Kd) in assay [3] of 98 nM.

B41: S305 (peptide)
peptide: N[Aib]PFYDE[Ac6c]DE[Cha]W[Aib]G
notes: printed: N-Aib-PFYDE-Acy-DE-Cha-W-Aib-G
In assay [3], B41 displayed a Kd of 840 nM.
